Reference: article PMC10415184, “A placental model of SARS-CoV-2 infection reveals ACE2-dependent susceptibility and differentiation impairment in syncytiotrophoblasts” (Nature Cell Biology, 2023)
Positions count from the first letter of the chain named.

B1: WCSL IgG1 (sheet row 13) (antibody, V domains shown)
VH: EVQLVESGGGLVKPGGSLRLSCAASGFTFSSYSMNWVRQAPGKGLEWVSSISSSSSYIYYADSVKGRFTISRDNAKNSLYLQMNSLRAEDTAVYYCARATTVVTPGYFQHWGQGTLVTVSS
VL: EIVLTQSPATLSLSPGQRATLSCRASQSVSSSLAWYQQKPGQAPRLLIYDASDRATDIPARFSGSGSGTDFTLTISSLEPEDFAVYYCQQRTNWPPLTFGGGTKVEIK
B2: WCSL IgG1 (sheet row 8) (antibody, V domains shown)
VH: QLQLQESGPGLVKPSETLSLTCTVSGGSISSSSYYWGWIRQPPGKGLEWIGSIYYSGSTYYNPSLKSRVTISVDTSKNQFSLKLSSVTAADTAVYYCASSPRNWGSPRFAFDIWGQGTMVTVSS
VL: QSVLTQPPSVSGAPGQRVTISCTGTTSNIGAGYDVHWYQQLPGTAPKLLIFGNTNRPSGVPERFSASRSGTSASLAITGLQTTDEADYYCQSYDNSLSGSRVFGGGTKLTVL
B3: WCSL IgG1 (sheet row 18) (antibody, V domains shown)
VH: EVQLVESGGGVVQPGRSLRLSCAASGFTFSSYGMHWVRQAPGKGLEWVSYIYPSGGGAYYADSVQGRFTVSRDNAKNSVYLQMNSLRVEDTAVYYCTRDFWSAPIPMWGQGTLVTVSS
VL: DIVMTQSPVSLPVTPGEPASISCRSSQSLLHSNGHNYLNWYLQKPGQSPHLLIYLGSNRASGVPDRFSGSGSGTDFTLNISRVEAEDVGVYYCMQALQTPWTFGQGTKVEIK
B4: WCSL IgG1 (sheet row 6) (antibody, V domains shown)
VH: QVQLVESGGGLIQPGGSLRLSCAASGFLVSSKYMSWVRQAPGKGLEWVSSIYSGGDTYYADSVKGRFTISRDNSKNTLSLQMHSLKADDTAVYYCARGATGYSDSWYENWGQGTLVTVSS
VL: DIVMTQSPLSLPVTPGEPASISCRPSQSLLHSNGNNYLDWYLQKPGQSPQLLIYLGSNRASGVPDRFSGSGSGTDFTLRISSVEAEDVGVYYCMQALQNPLTFGQGTRLEIK
B5: WCSL IgG1 (sheet row 14) (antibody, V domains shown)
VH: VESGGGLVQPGGSLRLSCVASGAASGFTFSTESMNWVRQAPGKGLEWVSYIYPSGGGAYYADSVQGRFTVSRDNAKNSVYLQMNSLRVEDTAVYYCVRHQYGDYPSWGQGTPVTVSS
VL: B4 VL with P12S, P25S, N35F, L38F, R79K, S82R, A96G, N99I, L101Y, R108K
B6: WCSL IgG1 (sheet row 16) (antibody, V domains shown)
VH: QITLKESGPTLVKPTQTLTLTCTFSGFSLSTSGVGVGWIRQPPGKALEWLALIYWDDDKRYSPSLKSRLTITRDTSKNLVVLTMINMDPVDTATYYCAHSHSTTWGAFDYWGQGTLVTVSS
VL: DIVMTQSPDSLAVSLGERATINCKSSRSVLYTYNNKDDVAWYQQKPGQPPKLLIYWASTRESGVPDRFSGSGSGTDFTLTISSLQAEDVAVYYCQQYYSAPLTFGGGPRWRSN
B7: WCSL IgG1 (sheet row 10) (antibody, V domains shown)
VH: EVQLVESGGGLVKPGGSLRLSCAASGFTFSSYSMNWVRQAPGKGLEWVSSISSSSGYIYYSDSLKGRFTISRDNAKNSLYLQMNSLTAEDTAVYYCAREGHIASRGWGWFDSWGQGTLVTVSS
VL: DIVMTQSPVSLAVTPGESASISCRSSQSLLHRNGYNYVDWYLQKPGQSPQLLIYLGSTRASGVPDRFSGSGSGTDFSLQITRVEAEDVGVYYCMQPLEIPLTFGGGTKLEIK
B8: WCSL IgG1 (sheet row 4) (antibody, V domains shown)
VH: EVQLLESGGGLVQPGGSLRLSCAASGFTFRNYAMSWVRQAPGKGLEWVSAISGSGSGTYYADSVKGRFTISRDNSKNTLYLQMNSLRAEDTAVYYCAKEGARIHWGQGTLVTVSS
VL: not shown
B9: WCSL IgG1 (sheet row 9) (antibody, V domains shown)
VH: B8 VH with L5V
VL: B3 VL with V9L, P12S, H35N, L38F, N39D, S48A, H50Q, N79K
B10: WCSL IgG1 (sheet row 12) (antibody, V domains shown)
VH: EVQLLESGGGLVQPGGSLRLSCAASGFTFSSYWMHWVRQAPGKGLEWVSAISGSGGSTYYADSVKGRFTISRDNSKNTLYLQMNSLRAEDTAVYYCARDTPLYYDFWSGDAFDIWGQGTMVTVSS
VL: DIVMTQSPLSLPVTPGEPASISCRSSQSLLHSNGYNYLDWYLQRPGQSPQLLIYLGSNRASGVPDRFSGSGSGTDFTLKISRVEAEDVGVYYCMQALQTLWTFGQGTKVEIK
B11: WCSL IgG1 (sheet row 19) (antibody, V domains shown)
VH: EVQLVESGGGVVQPGRSLRLSCAASGFTFSNYAMSWVRQAPGKGLEWVSGISGSGGSTYYADSVKGRFTISRDNSKNTLYLQMNSLRAEDTAVYYCARDRGYSYAAFQHWGQGTLVTVSS
VL: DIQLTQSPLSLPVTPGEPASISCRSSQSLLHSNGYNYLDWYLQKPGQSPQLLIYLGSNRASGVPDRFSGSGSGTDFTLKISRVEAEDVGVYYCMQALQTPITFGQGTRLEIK

Molecular target: recombinant human ACE2 (Homo sapiens, UniProt Q9BYF1)
Sequence (Q9BYF1 18-805): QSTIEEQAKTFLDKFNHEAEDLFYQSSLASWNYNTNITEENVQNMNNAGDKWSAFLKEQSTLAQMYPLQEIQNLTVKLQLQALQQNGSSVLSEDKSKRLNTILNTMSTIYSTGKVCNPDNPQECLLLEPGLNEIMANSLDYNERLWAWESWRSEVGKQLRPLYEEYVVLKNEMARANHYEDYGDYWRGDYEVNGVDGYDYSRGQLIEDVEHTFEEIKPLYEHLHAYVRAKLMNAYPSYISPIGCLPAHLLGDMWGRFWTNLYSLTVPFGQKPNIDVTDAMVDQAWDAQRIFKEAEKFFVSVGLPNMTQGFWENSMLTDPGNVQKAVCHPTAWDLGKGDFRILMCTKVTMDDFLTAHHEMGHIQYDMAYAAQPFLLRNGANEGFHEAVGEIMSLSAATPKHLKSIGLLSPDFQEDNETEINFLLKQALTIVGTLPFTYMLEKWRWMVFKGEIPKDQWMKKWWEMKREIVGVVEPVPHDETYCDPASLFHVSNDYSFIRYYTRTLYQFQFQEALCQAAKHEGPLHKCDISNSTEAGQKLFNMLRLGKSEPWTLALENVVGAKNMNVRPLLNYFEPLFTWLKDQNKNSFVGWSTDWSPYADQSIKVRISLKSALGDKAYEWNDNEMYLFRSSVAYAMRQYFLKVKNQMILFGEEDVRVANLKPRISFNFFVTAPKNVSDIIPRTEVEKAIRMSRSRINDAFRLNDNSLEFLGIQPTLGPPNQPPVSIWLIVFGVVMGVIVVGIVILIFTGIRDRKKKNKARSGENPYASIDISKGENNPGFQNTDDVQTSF

Row | Binder | binding result
1 | B1 | binds
2 | B2 | binds
3 | B3 | binds
4 | B4 | binds
5 | B5 | binds
6 | B6 | binds
7 | B7 | binds
8 | B8 | binds
9 | B9 | binds
10 | B10 | binds
11 | B11 | binds
